Data published in article PMC4479312.

These substances were tested against integrin α4β7 (human α4 and β7 subunits co-expressed on 293T cells) (human) (UniProt P13612).
UniProt P13612, sequence (P13612 34-1032, chain 1 of 2): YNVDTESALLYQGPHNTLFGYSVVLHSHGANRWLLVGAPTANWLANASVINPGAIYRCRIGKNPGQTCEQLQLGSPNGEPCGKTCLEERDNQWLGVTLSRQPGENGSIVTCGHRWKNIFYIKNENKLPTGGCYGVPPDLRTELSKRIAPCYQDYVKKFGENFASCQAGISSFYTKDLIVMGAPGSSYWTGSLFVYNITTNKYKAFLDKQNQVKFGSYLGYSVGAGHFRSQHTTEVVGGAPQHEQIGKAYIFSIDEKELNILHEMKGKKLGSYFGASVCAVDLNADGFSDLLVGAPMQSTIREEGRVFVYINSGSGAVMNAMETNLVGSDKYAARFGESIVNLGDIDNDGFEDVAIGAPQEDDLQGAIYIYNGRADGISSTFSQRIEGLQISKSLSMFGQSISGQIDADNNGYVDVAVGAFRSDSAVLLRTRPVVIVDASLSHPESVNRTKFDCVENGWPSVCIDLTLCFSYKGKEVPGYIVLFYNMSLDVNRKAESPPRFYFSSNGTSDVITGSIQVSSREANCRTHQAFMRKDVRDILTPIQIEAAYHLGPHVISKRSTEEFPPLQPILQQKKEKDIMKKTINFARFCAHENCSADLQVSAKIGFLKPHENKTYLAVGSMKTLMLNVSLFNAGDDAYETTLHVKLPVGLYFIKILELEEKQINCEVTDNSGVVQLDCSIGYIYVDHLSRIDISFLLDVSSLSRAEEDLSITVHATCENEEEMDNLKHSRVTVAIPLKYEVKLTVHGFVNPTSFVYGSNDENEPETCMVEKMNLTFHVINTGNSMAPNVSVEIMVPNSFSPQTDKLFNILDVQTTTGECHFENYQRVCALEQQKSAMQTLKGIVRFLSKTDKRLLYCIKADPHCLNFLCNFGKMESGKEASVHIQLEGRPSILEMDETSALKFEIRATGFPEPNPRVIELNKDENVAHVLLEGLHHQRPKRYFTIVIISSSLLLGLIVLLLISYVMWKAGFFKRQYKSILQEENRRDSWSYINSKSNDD
UniProt P13612, sequence (P26010 20-798, chain 2 of 2, further chain): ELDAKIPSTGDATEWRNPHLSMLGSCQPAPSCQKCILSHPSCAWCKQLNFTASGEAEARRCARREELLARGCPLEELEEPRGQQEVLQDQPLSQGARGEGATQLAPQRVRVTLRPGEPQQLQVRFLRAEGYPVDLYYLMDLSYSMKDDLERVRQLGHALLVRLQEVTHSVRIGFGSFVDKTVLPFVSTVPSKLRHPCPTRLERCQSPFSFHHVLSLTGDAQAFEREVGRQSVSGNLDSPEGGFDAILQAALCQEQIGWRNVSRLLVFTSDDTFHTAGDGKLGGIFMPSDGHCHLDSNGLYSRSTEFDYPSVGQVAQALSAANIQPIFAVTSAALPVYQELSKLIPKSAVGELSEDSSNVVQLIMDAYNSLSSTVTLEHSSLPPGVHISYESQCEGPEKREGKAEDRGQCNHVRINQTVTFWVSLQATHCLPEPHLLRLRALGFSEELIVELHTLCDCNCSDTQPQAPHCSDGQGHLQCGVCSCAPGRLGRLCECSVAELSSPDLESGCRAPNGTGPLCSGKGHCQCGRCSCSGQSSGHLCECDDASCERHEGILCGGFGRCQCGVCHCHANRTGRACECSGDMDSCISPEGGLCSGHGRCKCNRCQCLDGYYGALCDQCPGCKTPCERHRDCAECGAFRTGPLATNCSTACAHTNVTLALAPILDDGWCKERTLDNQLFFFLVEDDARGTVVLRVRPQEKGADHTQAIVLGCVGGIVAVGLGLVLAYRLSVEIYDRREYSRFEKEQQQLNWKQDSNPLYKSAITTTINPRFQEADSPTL

Substance	α4β7 dependence for replication (Act-1 mAb inhibition of p24 in ATRA-treated CD4+ T cells)
HIV-1 subtype C CAP88 transmitted/founder (T/F) envelope glycoprotein on infectious envelope clone virus (natural protein)	> 50%
HIV-1 subtype C CAP200 transmitted/founder (T/F) envelope glycoprotein (SDV motif) on infectious envelope clone virus (natural protein)	> 50%
HIV-1 subtype C CAP206 transmitted/founder (T/F) envelope glycoprotein on infectious envelope clone virus (natural protein)	> 50%
HIV-1 subtype C CAP225 transmitted/founder (T/F) envelope glycoprotein (SDI motif) on infectious envelope clone virus (natural protein)	> 50%
